The assay deals with USF-1-Flag (UniProt P22415).
UniProt P22415, sequence (P22415 whole entry): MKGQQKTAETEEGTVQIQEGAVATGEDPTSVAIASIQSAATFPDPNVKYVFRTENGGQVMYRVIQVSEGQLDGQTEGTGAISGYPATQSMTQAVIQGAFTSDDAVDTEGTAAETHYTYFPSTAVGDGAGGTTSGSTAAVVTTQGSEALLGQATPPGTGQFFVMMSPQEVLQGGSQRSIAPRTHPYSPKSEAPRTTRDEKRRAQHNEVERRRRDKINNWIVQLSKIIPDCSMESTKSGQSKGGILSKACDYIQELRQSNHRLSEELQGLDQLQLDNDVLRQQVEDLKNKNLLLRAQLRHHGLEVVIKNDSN

Consider “BAF60c-HA (from UniProt Q6STE5 1-483) (natural protein)”, for which the USF-dependent FAS promoter activation, luciferase reporter (Fig. 3D) worked out at 4 fold.

In turn, “HA-tagged BAF60c S247D (from UniProt Q6STE5 1-483) (natural protein)” gave a USF-dependent FAS promoter activation, luciferase reporter (Fig. 3D) of 4 fold.

Source of the values: PMC3786575.
